According to article PMC6791878, “Evaluation of integrin αvβ6 cystine knot PET tracers to detect cancer and idiopathic pulmonary fibrosis” (Nature Communications, 2019):
Like-named read-outs stand apart in the source and are kept apart here.

Tests used:
clinical = details: human, iv, total radioactivity
Procedure: (§1) The administered dose was 55.5–96.2MBq (1.5–2.6 mCi). The scan (6 bed positions, 2 min bed^−1) covered an area that included the top of the skull to the middle of the femur. OSEM was applied for reconstruction. […] The CT scan (140 kV, 35 mA, pitch of 1:1, layer of 5 mm thickness; layer spacing of 3 mm, 512*512 matrix, field of view of 70 cm) also covered the top of the skull to the middle of the femur. […] Immediately upon completion of the first scan, the second whole-body static PET data was acquired. Sequentially, multiple whole-body static PET scans were acquired, one by one, from 0 to 75 min.
(§2) Upon co-registration of the PET and CT images, the CT images were used to determine regions of interest for the organs or tissues reported in the manuscript. These ROIs were applied to the PET images of the brain, pituitary gland, breast, lower and upper large intestine, small intestine, stomach, pancreas, heart wall, liver, lung, muscle, red marrow, bone, skin, and thyroid gland. For high uptake organs such as the kidneys, bladder and for the whole body, threshold-based segmentation of PET images were used to determine a close-fitting ROI around the entire organ or whole body. In order to determine accuracy, these PET-derived ROIs were compared to the CT overlay for a close match.

[1] = test system: pancreatic, cervical and lung cancer; details: one patient, Fig 4C
Procedure: as §1, §2

CC[C@H](C)[C@@H]1NC(=O)[C@@H](NC(=O)CNC(=O)CCC(C(=O)O)N2CCN(CC(=O)O)CCN(CC(=O)O)CC2)CSSC[C@@H]2NC(=O)[C@H](C)NC(=O)CNC(=O)[C@@H]3CCCN3C(=O)[C@@H]3CSSC[C@@H](C(=O)NCC(N)=O)NC(=O)[C@H](Cc4ccc(O)cc4)NC(=O)CNC(=O)[C@H](CC(N)=O)NC(=O)CNC(=O)[C@H](CCCNC(=N)N)NC(=O)[C@H](CSSC[C@H](NC(=O)[C@H](CCCNC(=N)N)NC(=O)[C@H](Cc4ccccc4)NC(=O)[C@H](CC(C)C)NC(=O)[C@H](CC(C)C)NC(=O)[C@H]([C@@H](C)O)NC(=O)CNC(=O)[C@H](CC(C)C)NC(=O)[C@H](CC(=O)O)NC(=O)[C@H]([C@@H](C)O)NC(=O)[C@H](CCCNC(=N)N)NC(=O)CNC(=O)[C@H](CC(N)=O)NC(=O)[C@H](CC(C)C)NC1=O)C(=O)N[C@@H](CCCNC(=N)N)C(=O)N[C@@H](CCCNC(=N)N)C(=O)N[C@@H](CC(=O)O)C(=O)N[C@@H](CO)C(=O)N[C@@H](CC(=O)O)C(=O)N3)NC(=O)[C@H]([C@@H](C)CC)NC2=O (stereo partly shown) [[^68Ga]NODAGA-R01-MG, metal not drawn]
SUV (clinical; both, kidney, average SUVmean, ~1 h p.i., cancer patients): 19.9 ± 2.23 SUV
SUV (clinical; both, normal pancreas, SUVmean, n = 5, ± S.D.): 1.79 ± 0.47 SUV
SUV (clinical; both, pancreatic tumour, average SUVmean, pancreatic cancer, pancreatic cancer patients): 4.2 ± 0.1 SUV
SUV (clinical; both, small intestines, average SUVmean, cancer patients): 7.06 ± 2.74 SUV
SUV (clinical; both, stomach, average SUVmean, cancer patients): 8.87 ± 6.52 SUV
SUV (clinical; head of pancreas, SUVmean, one pancreatic cancer patient (Fig 4d)): ~3.1 SUV
SUV (clinical; lung tumor, SUVmean, patient, squamous cell carcinoma of the lung): 2.2 SUV
SUV (clinical; tail of pancreas, SUVmean, one pancreatic cancer patient (Fig 4d)): ~4.4 SUV
SUV (clinical; tumor in tail of pancreas, 2.2 mCi, SUVmean, patient, ~50 minutes p.i.): 4.3 SUV
ROI uptake Bl (bladder) ([1]; 9 min p.i.): 1.885
ROI uptake Bn (osteogenic cells) ([1]; 9 min p.i.): 0.4959
ROI uptake Br (brain) ([1]; 9 min p.i.): 0.05775
ROI uptake Brs (breast) ([1]; 9 min p.i.): 0.428
ROI uptake HC (heart contents) ([1]; 9 min p.i.): 1.158
ROI uptake HW (heart wall) ([1]; 9 min p.i.): 0.7507
ROI uptake LLI (lower large intestine) ([1]; 9 min p.i.): 1.4
ROI uptake Ln (lung) ([1]; 9 min p.i.): 0.3091
ROI uptake Lv (liver) ([1]; 9 min p.i.): 0.8628
ROI uptake Ms (muscle) ([1]; 9 min p.i.): 0.6964
ROI uptake Pn (pancreas) ([1]; 9 min p.i.): 1.576
ROI uptake Pt (pituitary gland) ([1]; 9 min p.i.): 2.269
ROI uptake RM (red marrow) ([1]; 9 min p.i.): 0.2412
ROI uptake SI (small intestine) ([1]; 9 min p.i.): 6.974
ROI uptake Sk (skin) ([1]; 9 min p.i.): 0.09851
ROI uptake Sp (spleen) ([1]; 9 min p.i.): 0.7065
ROI uptake St (stomach) ([1]; 9 min p.i.): 2.524
ROI uptake TB (total body) ([1]; 9 min p.i.): 0.6998
ROI uptake Tm (thymus) ([1]; 9 min p.i.): 0.7337
ROI uptake Tr (thyroid) ([1]; 9 min p.i.): 1.94
ROI uptake ULI (upper large intestine) ([1]; 9 min p.i.): 1.923
ROI uptake Bl (bladder) ([1]; 22 min p.i.): 6.4
ROI uptake Bn (osteogenic cells) ([1]; 22 min p.i.): 0.4058
ROI uptake Br (brain) ([1]; 22 min p.i.): 0.03902
ROI uptake Brs (breast) ([1]; 22 min p.i.): 0.5151
ROI uptake HC (heart contents) ([1]; 22 min p.i.): 0.7844
ROI uptake HW (heart wall) ([1]; 22 min p.i.): 0.4761
ROI uptake LLI (lower large intestine) ([1]; 22 min p.i.): 1.495
ROI uptake Ln (lung) ([1]; 22 min p.i.): 0.3044
ROI uptake Lv (liver) ([1]; 22 min p.i.): 0.7375
ROI uptake Ms (muscle) ([1]; 22 min p.i.): 0.6868
ROI uptake Pn (pancreas) ([1]; 22 min p.i.): 1.214
ROI uptake Pt (pituitary gland) ([1]; 22 min p.i.): 1.986
ROI uptake RM (red marrow) ([1]; 22 min p.i.): 0.1015
ROI uptake SI (small intestine) ([1]; 22 min p.i.): 7.153
ROI uptake Sk (skin) ([1]; 22 min p.i.): 0.09365
ROI uptake Sp (spleen) ([1]; 22 min p.i.): 0.5971
ROI uptake St (stomach) ([1]; 22 min p.i.): 2.337
ROI uptake TB (total body) ([1]; 22 min p.i.): 0.6751
ROI uptake Tm (thymus) ([1]; 22 min p.i.): 0.7375
ROI uptake Tr (thyroid) ([1]; 22 min p.i.): 0.7922
ROI uptake ULI (upper large intestine) ([1]; 22 min p.i.): 1.432
ROI uptake Bl (bladder) ([1]; 36 min p.i.): 8.426
ROI uptake Bn (osteogenic cells) ([1]; 36 min p.i.): 0.4395
ROI uptake Br (brain) ([1]; 36 min p.i.): 0.03531
ROI uptake Brs (breast) ([1]; 36 min p.i.): 0.6278
ROI uptake HC (heart contents) ([1]; 36 min p.i.): 0.722
ROI uptake HW (heart wall) ([1]; 36 min p.i.): 0.4798
ROI uptake LLI (lower large intestine) ([1]; 36 min p.i.): 1.238
ROI uptake Ln (lung) ([1]; 36 min p.i.): 0.3094
ROI uptake Lv (liver) ([1]; 36 min p.i.): 0.6906
ROI uptake Ms (muscle) ([1]; 36 min p.i.): 0.7579
ROI uptake Pn (pancreas) ([1]; 36 min p.i.): 1.296
ROI uptake Pt (pituitary gland) ([1]; 36 min p.i.): 2.22
ROI uptake RM (red marrow) ([1]; 36 min p.i.): 0.2108
ROI uptake SI (small intestine) ([1]; 36 min p.i.): 6.296
ROI uptake Sk (skin) ([1]; 36 min p.i.): 0.08072
ROI uptake Sp (spleen) ([1]; 36 min p.i.): 0.426
ROI uptake St (stomach) ([1]; 36 min p.i.): 2.242
ROI uptake TB (total body) ([1]; 36 min p.i.): 0.6996
ROI uptake Tm (thymus) ([1]; 36 min p.i.): 0.6323
ROI uptake Tr (thyroid) ([1]; 36 min p.i.): 0.7534
ROI uptake ULI (upper large intestine) ([1]; 36 min p.i.): 1.834
ROI uptake Bl (bladder) ([1]; 49 min p.i.): 9.366
